In PMC10336132 (2023) one finds Kd data, which are given here for one molecule.

The target in one assay is T1, SdpB(26-536) (Caulobacter crescentus NA1000, UniProt A0A0H3C791 26-536, biotinylated using NHS-PEG4-Biotin (for BLI)).
T1 chain: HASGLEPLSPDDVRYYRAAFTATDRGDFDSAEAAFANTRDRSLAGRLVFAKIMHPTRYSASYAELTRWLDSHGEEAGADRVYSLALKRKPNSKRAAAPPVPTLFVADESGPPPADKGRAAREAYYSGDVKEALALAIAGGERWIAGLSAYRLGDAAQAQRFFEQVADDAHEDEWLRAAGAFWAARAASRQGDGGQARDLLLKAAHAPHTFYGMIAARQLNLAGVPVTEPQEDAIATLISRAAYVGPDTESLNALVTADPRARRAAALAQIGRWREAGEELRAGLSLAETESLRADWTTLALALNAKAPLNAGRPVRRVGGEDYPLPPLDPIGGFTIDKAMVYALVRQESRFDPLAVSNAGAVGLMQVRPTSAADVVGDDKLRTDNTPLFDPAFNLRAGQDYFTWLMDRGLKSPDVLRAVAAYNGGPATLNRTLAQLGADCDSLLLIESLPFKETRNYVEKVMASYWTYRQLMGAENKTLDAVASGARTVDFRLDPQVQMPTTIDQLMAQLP
Description: BLI.

A further assay addresses T2, CrbA(371-451) (Caulobacter crescentus NA1000, UniProt A0A0H3C8K5 371-451, biotinylated using NHS-PEG4-Biotin (for BLI)).
T2 chain: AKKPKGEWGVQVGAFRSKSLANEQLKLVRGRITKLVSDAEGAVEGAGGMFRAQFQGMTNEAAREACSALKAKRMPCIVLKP
The assay can be described thus: BLI. For orientation: BLI is a label-free optical method that tracks binding on a fibre tip over time.

For another assay, the target named is T3, His6-SdpA(21-699) (Caulobacter crescentus NA1000, UniProt A0A0H3C7P1 21-699, biotinylated using NHS-PEG4-Biotin (for BLI)).
T3 chain: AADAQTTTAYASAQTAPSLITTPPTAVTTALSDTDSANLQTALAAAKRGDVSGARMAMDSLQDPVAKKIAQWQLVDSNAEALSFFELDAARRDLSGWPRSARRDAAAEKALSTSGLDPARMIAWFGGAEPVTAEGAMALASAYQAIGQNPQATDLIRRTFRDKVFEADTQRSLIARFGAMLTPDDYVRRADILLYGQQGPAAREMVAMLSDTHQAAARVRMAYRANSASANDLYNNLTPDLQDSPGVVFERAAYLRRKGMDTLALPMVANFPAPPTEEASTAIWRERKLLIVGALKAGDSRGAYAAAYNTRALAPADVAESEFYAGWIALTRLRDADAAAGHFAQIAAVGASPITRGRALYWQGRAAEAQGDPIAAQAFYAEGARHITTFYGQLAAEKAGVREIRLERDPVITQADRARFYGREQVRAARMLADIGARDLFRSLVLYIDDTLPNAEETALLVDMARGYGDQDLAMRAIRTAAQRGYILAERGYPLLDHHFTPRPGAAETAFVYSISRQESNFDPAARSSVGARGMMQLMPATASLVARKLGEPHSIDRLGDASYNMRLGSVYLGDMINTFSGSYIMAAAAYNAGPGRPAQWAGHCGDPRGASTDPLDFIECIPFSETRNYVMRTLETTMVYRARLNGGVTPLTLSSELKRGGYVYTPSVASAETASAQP
Description: BLI.

The next assay concerns the target T4, FtsN(51-266) (Caulobacter crescentus NA1000, UniProt B8GX61 51-266, biotinylated using NHS-PEG4-Biotin (for BLI)).
T4 chain: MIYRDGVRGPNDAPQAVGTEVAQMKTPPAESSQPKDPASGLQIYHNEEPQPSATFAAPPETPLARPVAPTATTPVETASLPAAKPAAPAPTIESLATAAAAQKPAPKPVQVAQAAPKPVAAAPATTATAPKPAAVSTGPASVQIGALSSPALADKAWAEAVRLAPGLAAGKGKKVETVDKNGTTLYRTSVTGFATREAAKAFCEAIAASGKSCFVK
The assay can be described thus: BLI.

The target in another assay is T5, AmiC(35-395) (Caulobacter crescentus NA1000, UniProt A0A0H3C9I3 35-395, biotinylated using NHS-PEG4-Biotin (for BLI)).
T5 chain: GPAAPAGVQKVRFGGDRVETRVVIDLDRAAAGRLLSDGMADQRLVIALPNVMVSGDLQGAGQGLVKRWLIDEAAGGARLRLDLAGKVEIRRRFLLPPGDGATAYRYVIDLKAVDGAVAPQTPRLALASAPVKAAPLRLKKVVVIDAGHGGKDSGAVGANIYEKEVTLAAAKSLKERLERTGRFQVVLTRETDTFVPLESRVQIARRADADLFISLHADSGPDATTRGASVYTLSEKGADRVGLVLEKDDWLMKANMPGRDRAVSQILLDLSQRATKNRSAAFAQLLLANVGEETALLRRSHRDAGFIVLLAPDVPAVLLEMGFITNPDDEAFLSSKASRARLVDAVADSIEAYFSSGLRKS
Description: BLI.

For assay [1], the target named is SdpA, SdpB, AmiC, the SPOR domain of CrbA and the periplasmic region of FtsN. The assay can be described thus: BLI; biotinylated target immobilised on streptavidin (SAX) sensors, DipM as analyte at several concentrations; equilibrium shifts fitted to a one-site model; 50 mM HEPES/NaOH pH 7.2, 50 mM NaCl, 5 mM MgCl2, 0.1 mM EDTA, 10% glycerol, 10 µM BSA, 0.01% Triton X-100.

B1: MAS-DipM(26-609)-His6 (natural protein)
chain: MASGQSGQRFTPNFPITQPAAPPPGETIQAQPGEAESLPRPTPIPVQSAPPIAQAELPPPAPVSTPAPAPQPVLRATPPRTVVTTTVTGPVVEVAGKPQVRVVESGDALDAIARGMGSTRAELVKLNDLEPPYRLKLGQKIKGPATTAKAYVVQTGDTMFAIAKRFNVTAAALAEENDLKSGAAIKKGQKLLLPDGYKDKGPIKTTQVIPGTPATMVAEAEPAPATTRPATPAATPSRPVRQPVSEETSEPATTSTTTLSVTGSVVTVAGPRQVHTVKSGDTLTAIARKFDMSVSELAEANKLDTEKPLKLGAKIKGPATTQKAYSVQTGDTLGEIAKRFNVSVKALAAENNLRATASLKKGQKIALPDGFRDKGPIRTTTTTRPATPPANTYARVDSSAAAASTPSSPVPYTPSGAAPRPSAPVAAQPITPPPSSGRTIIETAAAPTEAEIIASGKGKFAWPLRGDIISSFGVKGTGQRNDGLNIRAPQGTPVLSSADGEIAYAGNQVPTFGNLVLVKHADGWVTAYAHLSSTNVKMRQQVKQGEQLGTVGATGGVNEPQLHFEMRYAPTVKDKAKPVDPALVLPR
As a reminder, the Kd is the constant that tells how readily two partners part at equilibrium. B1: the Kd in the assay with SdpB(26-536) is 3.5 µM; in the assay with CrbA(371-451) it was 46.3 µM; in the assay with His6-SdpA(21-699), 12.1 µM; with FtsN(51-266), 20 µM; in the assay with AmiC(35-395), 18.3 µM; in assay [1] it was 3 to 46 µM.
